US20240138384A1

Molecular target: humanized CD47 polypeptide on red blood cells from humanized CD47 mice (human extracellular and transmembrane portions with mouse signal peptide portion and mouse intracytoplasmic tail) (UniProt Q08722)
Experiment: flow cytometry on RBCs from humanized CD47 mice, isotype control (baseline)

Chain of UniProt Q08722 (Q08722 other isoform, or with tags, fused parts or gaps limits assumed): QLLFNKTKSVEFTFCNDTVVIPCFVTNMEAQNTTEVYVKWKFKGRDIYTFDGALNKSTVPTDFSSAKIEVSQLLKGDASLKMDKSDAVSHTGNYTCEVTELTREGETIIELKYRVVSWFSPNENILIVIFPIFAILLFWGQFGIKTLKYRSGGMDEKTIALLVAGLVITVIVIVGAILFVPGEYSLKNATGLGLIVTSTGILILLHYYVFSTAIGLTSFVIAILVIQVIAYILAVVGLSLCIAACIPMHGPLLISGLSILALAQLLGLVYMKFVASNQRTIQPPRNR

MFI [MFI] | Substance
112 | Control, hIgG4 (antibody)
112 | Control, hIgG4s (antibody)
